Assay [1] addresses T1, recombinant TcpC (Toll/interleukin-1 receptor domain-containing protein encoded by E. coli) (uropathogenic E. coli (UPEC), UniProt A0A0H2V8B5 1-307).
T1 construct: TcpC, TIR domain-containing virulence factor of uropathogenic E. coli; called 'the full length rTcpC protein'; predicted TIR domain 171-304 aa; Only the vector pET42a is named; Depending on the cloning sites it may also add an N-terminal GST and S-tag; CFT073 is surmised; also called rTcpC; rTcpC prototype; source: E. coli BL21DE3 transformed with pET42a-tcpc, purified, LPS-free
The assay can be described thus: SPR; 1 nM UBE2D1 cross-linked on an activated CM5 chip; 0.05-0.8 nM rTcpC in PBS flowed over; Biacore T200. To be noted: both partners purified. Background: In SPR one partner is held on a chip, and binding of the other changes the refractive index at the surface.

For assay [2], the target named is T1, recombinant TcpC (Toll/interleukin-1 …). The assay can be described thus: ITC; 1 uM rTcpC in PBS in the titration pool, 0.1 uM UBE2D1 or rMyD88 in PBS in the sample pool; VP-ITC microcalorimeter. To be noted: both partners purified. For orientation: In ITC the heat of successive injections is recorded.

Data on 1 molecule can be found in PMC8041205, “TcpC inhibits toll-like receptor signaling pathway by serving as an E3 ubiquitin ligase that promotes degradation of myeloid differentiation factor 88” (PLoS Pathogens, 2021).

B1: UBE2D1 (R&D) (enzyme)
chain: not shown
notes: UBE2D1 bought from R&D; No catalogue number is printed, so the species and construct of the bought protein are unknown; source: bought: R&D
The term Kd denotes a measure of binding affinity in units of concentration. Regarding B1, the values for the Kd in assay [1] and in assay [2] were 17.2 nM and 763 nM, respectively.
